From paper PMC5984625, “Dynamic structural states of ClpB involved in its disaggregation function” (Nature Communications, 2018)
“And” between values parts separate entries of the source, which are not always exact repeats. Equal entries are not always repeated. One block for each substance: values may come before it.

Tests used:
[1] = target: N-terminal deletion mutant of TClpB (ΔN-TClpB) (Thermus thermophilus); test: AUC; sedimentation velocity, 20 °C, 42,000 rpm, 50 mM MOPS pH 7.5, 50 mM KCl, 5 mM MgCl2, 0.5 and 2.0 mg/mL protein, with 20 mM ADP (preincubated 55 °C 1 min)
[2] = target: N-terminal deletion mutant of TClpB (ΔN-TClpB) (Thermus thermophilus); test: AUC; sedimentation velocity, 20 °C, 42,000 rpm, 50 mM MOPS pH 7.5, 50 mM KCl, 5 mM MgCl2, 0.5 and 2.0 mg/mL protein, with 20 mM ATP (preincubated 55 °C 1 min)
[3] = target: N-terminal deletion mutant of TClpB (ΔN-TClpB) (Thermus thermophilus); test: native MS; incubated at 55 °C with 2 mM ATP or ATPγS for 1 min, exchanged into 150 mM ammonium acetate pH 7.5 with 100 µM ATP or ATPγS at 4 °C; nanoflow electrospray
[4] = target: N-terminal deletion mutant of TClpB (ΔN-TClpB) (Thermus thermophilus); test: AUC; sedimentation velocity, 20 °C, 42,000 rpm, 50 mM MOPS pH 7.5, 50 mM KCl, 5 mM MgCl2, 0.5 and 2.0 mg/mL protein, with 2 mM ATPγS (preincubated 55 °C 1 min)
[5] = target: N-terminal deletion mutant of TClpB (ΔN-TClpB) (Thermus thermophilus); test: high-speed atomic force microscopy (HS-AFM); self-association; sample preincubated with 2 mM ATP at 55 °C for 1 min, adsorbed on bare mica, imaged at 25 °C in 50 mM MOPS pH 7.5, 20 mM KCl, 5 mM MgCl2 with ATP (10 μM to 2 mM for ΔN-TClpB, 0.5 mM for full length, 1 mM for the mutants; also 1 mM ATPγS or ADP)
[6] = test system: T1, Nc1ncnc2c1ncn2[C@@H]1O[C@H](COP(=O)(O)OP(=O)(O)OP(=O)(O)O)[C@@H](O)[C@H]1O; test: purified protein; format: biochemical, Thermus thermophilus; conditions: Hill equation fit, Hill coefficient 2.6 ± 0.6, pH 7.5, 20 mM KCl, 5 mM MgCl2, 25 °C
T1 construct: N-terminal domain deletion (AAA1, M-domain and AAA2 kept); from plasmid pMCB1; expressed in E. coli BL21(DE3) or KRX; purified; hexamer and smaller oligomers

[7] = target: ΔN-TClpB repressed mutant E423A (Thermus thermophilus); test: high-speed atomic force microscopy (HS-AFM); self-association; sample preincubated with 2 mM ATP at 55 °C for 1 min, adsorbed on bare mica, imaged at 25 °C in 50 mM MOPS pH 7.5, 20 mM KCl, 5 mM MgCl2 with ATP (10 μM to 2 mM for ΔN-TClpB, 0.5 mM for full length, 1 mM for the mutants; also 1 mM ATPγS or ADP)
[8] = target: ΔN-TClpB hyperactive mutant Y494D (Thermus thermophilus); test: as above

ΔN-TClpB (Thermus thermophilus HB8), sequence (chain, as listed by the source mutant): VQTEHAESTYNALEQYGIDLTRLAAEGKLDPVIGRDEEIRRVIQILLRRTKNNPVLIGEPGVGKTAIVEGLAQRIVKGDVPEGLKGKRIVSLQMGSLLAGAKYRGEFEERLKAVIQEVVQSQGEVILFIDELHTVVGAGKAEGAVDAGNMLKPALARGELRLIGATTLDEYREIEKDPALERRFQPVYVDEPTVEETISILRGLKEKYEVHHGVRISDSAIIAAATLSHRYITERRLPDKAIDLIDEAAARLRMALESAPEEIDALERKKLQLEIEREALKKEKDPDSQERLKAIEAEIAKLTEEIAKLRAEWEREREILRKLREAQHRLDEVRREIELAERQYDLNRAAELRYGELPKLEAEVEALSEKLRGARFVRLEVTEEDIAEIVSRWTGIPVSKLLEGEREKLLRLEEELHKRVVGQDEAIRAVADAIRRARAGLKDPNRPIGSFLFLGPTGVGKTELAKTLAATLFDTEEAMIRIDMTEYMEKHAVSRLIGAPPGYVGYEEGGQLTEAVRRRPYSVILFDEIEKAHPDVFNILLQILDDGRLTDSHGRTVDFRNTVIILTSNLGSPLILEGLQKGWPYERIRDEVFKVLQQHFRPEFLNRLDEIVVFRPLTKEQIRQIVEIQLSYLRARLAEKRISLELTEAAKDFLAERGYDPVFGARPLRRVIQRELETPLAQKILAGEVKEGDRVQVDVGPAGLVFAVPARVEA

stoichiometry N [1]: < 6
stoichiometry N [2]: 6 and 3
stoichiometry N [3]: 2 and 6
stoichiometry N [4]: 6
stoichiometry N [5]: 6 and 3 to 8 (2×)
Substance: N-terminal deletion mutant of TClpB (ΔN-TClpB) (domain or fragment)

Substance: ΔN-TClpB (Thermus thermophilus HB8)
K0.5 [6]: 0.16 ± 0.02 mM

stoichiometry N [7]: 6
Substance: ΔN-TClpB repressed mutant E423A (domain or fragment)

stoichiometry N [8]: 6
Substance: ΔN-TClpB hyperactive mutant Y494D (domain or fragment)
